Consider three molecules from article PMC8503523, “Lilium regale Wilson WRKY2 Regulates Chitinase Gene Expression During the Response to the Root Rot Pathogen Fusarium oxysporum”.

The target in data set [1] is T1, LrWRKY2 (Lilium regale Wilson, UniProt A0A894THB0 1-343).
T1 sequence: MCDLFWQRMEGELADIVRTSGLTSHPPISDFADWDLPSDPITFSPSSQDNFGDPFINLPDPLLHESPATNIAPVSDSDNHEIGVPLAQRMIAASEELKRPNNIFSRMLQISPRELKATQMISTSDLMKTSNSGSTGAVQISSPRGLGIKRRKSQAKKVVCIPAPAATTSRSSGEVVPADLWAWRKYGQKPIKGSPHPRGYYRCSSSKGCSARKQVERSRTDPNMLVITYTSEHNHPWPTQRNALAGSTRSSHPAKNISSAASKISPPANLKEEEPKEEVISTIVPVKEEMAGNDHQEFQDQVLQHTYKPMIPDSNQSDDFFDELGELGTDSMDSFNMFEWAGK
As to the kind of experiment: EMSA; 0.5 ug protein in 20 uL with 7 uL binding buffer (as printed: 100 mM Tris, 500 mM KCl, 10 mM DTT, 50% glycerol, 100 mM MgCl2, 1% NP-40, 1 M KCl, 200 mM EDTA, 1). Conditions: protein: recombinant, tags: His (pET-32a fusion).

Data set [2] deals with T1, LrWRKY2. Kind of data set: competition EMSA; 50-fold excess over biotin-labeled N1; shift less intense; 0.5 ug protein in 20 uL with 7 uL binding buffer (as printed: 100 mM Tris, 500 mM KCl, 10 mM DTT, 50% glycerol, 100 mM MgCl2, 1% NP-40, 1 M KCl, 200 mM EDTA, 1). Conditions: protein: recombinant; tags: His (pET-32a fusion); (only one strand printed; duplex implied by 50-bp). On the technique in general: In EMSA bound probe runs differently from free probe, usually more slowly.

B1: LrCHI2 promoter W-box probe (dsDNA)
DNA 1: GGCAAACTTTTAGGCCAAGAGATTGACTAGAACCCTCACAATCTCTATAT
DNA 2: ATATAGAGATTGTGAGGGTTCTAGTCAATCTCTTGGCCTAAAAGTTTGCC
B1: the binding result in the data set with LrWRKY2 [1] ((only one strand printed; duplex implied by 50-bp)) was “binds”.

B2: LrCHI2 promoter mutant W-box probe (dsDNA)
DNA 1: GGCAAACTTTTAGGCCAAGAGATTACCTAGAACCCTCACAATCTCTATAT
DNA 2: ATATAGAGATTGTGAGGGTTCTAGGTAATCTCTTGGCCTAAAAGTTTGCC
Regarding B2, the binding result with LrWRKY2 [1] is given as “no binding”.

B3: LrCHI2 promoter W-box competitor, unlabeled (dsDNA)
DNA 1: GGCAAACTTTTAGGCCAAGAGATTGACTAGAACCCTCACAATCTCTATAT
DNA 2: ATATAGAGATTGTGAGGGTTCTAGTCAATCTCTTGGCCTAAAAGTTTGCC
In the case of B3, the binding result with LrWRKY2 [2] is on record as “binds”.
